According to patent US20160206741:

System: T1, GRRRGK (SEQ ID NO: 1) oligopeptide crosslink within P(MAA-co-NVP) microgels
T1 sequence: GRRRGK

Q: For trypsin, which “relative turbidity of microgel solutions over time” value is on record?
A: reduced relative turbidity as a function of time and trypsin concentration

Q: What about the “trypsin activity on the BAEE substrate (absorbance at 253 nm) after 90 min with 0-6 mg/ml microgels” value of the same substance?
A: trypsin activity on the BAEE substrate is reduced as microgel concentration increases
